Experimental data published in patent US20150158949A1 (MEDLMMUNE, published 2015).

T1: IFNAR1 (Interferon alpha receptor-1) (human, UniProt P17181 28-557)
T1 sequence (looked up): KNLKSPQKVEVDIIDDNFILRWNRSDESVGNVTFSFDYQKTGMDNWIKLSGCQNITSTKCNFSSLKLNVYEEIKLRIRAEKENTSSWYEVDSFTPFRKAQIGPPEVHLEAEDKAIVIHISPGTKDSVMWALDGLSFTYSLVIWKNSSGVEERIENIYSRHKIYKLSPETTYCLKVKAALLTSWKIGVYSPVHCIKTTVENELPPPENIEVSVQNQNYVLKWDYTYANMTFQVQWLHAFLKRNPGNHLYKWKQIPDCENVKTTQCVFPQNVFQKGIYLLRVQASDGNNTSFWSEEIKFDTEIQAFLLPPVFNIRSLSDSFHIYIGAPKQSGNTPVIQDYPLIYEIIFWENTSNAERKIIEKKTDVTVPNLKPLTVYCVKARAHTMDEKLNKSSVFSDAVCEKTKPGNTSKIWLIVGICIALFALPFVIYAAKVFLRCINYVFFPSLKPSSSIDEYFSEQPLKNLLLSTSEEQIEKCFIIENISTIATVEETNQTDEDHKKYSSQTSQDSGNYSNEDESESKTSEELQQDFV

B1: MEDI-546 (antibody, human IgG1, V domains shown)
VH: EVQLVQSGAEVKKPGESLKISCKGSGYIFTNYWIAWVRQMPGKCLESMGIIYPGDSDIRYSPSFQGQVTISADKSITTAYLQWSSLKASDTAMYYCARHDIEGFDYWGRGTLVTVSS
VL: EIVLTQSPGTLSLSPGERATLSCRASQSVSSSFFAWYQQKPGQAPRLLIYGASSRATGIPDRLSGSGSGTDFTLTITRLEPEDFAVYYCQQYDSSAITFGQGTRLEIK
B2: MEDI-546-Alexa647 (antibody, human IgG1, V domains shown)
VH: EVQLVQSGAEVKKPGESLKISCKGSGYIFTNYWIAWVRQMPGKCLESMGIIYPGDSDIRYSPSFQGQVTISADKSITTAYLQWSSLKASDTAMYYCARHDIEGFDYWGRGTLVTVSS
VL: EIVLTQSPGTLSLSPGERATLSCRASQSVSSSFFAWYQQKPGQAPRLLIYGASSRATGIPDRLSGSGSGTDFTLTITRLEPEDFAVYYCQQYDSSAITFGQGTRLEIK
modifications: Alexa647 dye conjugated to the antibody (sites and chain not stated)

Tests used:
[1] = biological target: T1, IFNAR1 (Interferon alpha receptor-1); assay: cell-based or functional assay
[2] = biological target: T1, IFNAR1 (Interferon alpha receptor-1); assay: live-cell confocal fluorescence imaging of IFNAR1-expressing THP-1 cells, 1 µg/mL, stained on ice, FcR blocked
Experimental: Reaction mixtures were purified from unincorporated fluorescent molecules using size-exclusion mini-columns provided in the kit. IFNAR1-expressing THP-1 cells were maintained in suspension using RPMI growth medium containing 10% FBS, and seeded in a fresh growth medium at 2×10^5 cells/mL overnight prior to the experiments. On the day of experiments, THP-1 cells were washed and resuspended to a concentration of 3×10⁶ cells/mL.
Cell suspensions were first stained for 10-20 min with cytosol dye, CFSE, from Invitrogen (Life Technologies Corp, Carlsbad, Calif.) in a CO₂ incubator at 37° C. Excess CFSE was removed by two washes with 1×PBS. […] Following the removal of unincorporated antibodies by centrifugation, cells were resuspended to initial volumes, and dispensed into the wells of 384-well imaging plates.

| Binder | IC50 (nM), bootstrap median [1] | IC50 (nM): Potency, MEDI-546 concentration corresponding to half-maximum inhibition of GS production [1] | binding result [2] |
| --- | --- | --- | --- |
| B1 | 0.772 nM | 0.978 nM | – |
| B2 | – | – | binds |
